Assay results as given in JP2020002075A (dated 2020).
Substitutions are numbered along the chain they refer to. Values belong to the binder of their own block, whether it stands above or below them.

Key:
[1] = target: T1, ヒトポドプラニン (ヒトポドプラニン提示CHO細胞, CHO-hPDPN) (human, UniProt Q86YL7 23-162); experiment: flow cytometry on CHO-hPDPN, fit f(x)=a*x/(x+Kd)
T1 construct: whole, on cells
T1 sequence (looked up): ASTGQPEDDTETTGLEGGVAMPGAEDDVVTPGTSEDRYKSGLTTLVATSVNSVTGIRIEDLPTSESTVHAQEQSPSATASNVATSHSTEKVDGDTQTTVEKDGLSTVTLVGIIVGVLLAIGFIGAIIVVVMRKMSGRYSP

[2] = target: T2, ラットポドプラニン (ラットポドプラニン提示CHO細胞, CHO-rPDPN) (rat, UniProt Q64294 23-166); experiment: flow cytometry on CHO-rPDPN, fit f(x)=a*x/(x+Kd)
T2 construct: whole, on cells
T2 sequence (looked up): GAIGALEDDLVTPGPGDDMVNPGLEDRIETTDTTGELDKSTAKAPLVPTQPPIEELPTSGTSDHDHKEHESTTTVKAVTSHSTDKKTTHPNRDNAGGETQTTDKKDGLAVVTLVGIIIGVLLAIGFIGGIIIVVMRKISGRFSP

[3] = target: T3, ポドプラニン (ポドプラニン提示CHO細胞, 種の記載なし); experiment: flow cytometry; cells and species not named at this place
T3 construct: whole, on cells

Kd [1]: 6.3 nM
Kd [2]: 108 nM
Kd [3]: 108 nM
B1: clone 1 (第一世代交差性一本鎖可変領域断片) (scFv)
scFv: EVQLKESGGGLVQSGGSLRLSCAASGFSLTDYGVNWVRQAPGKGLEWVGVIWGGGNTYYNSALKSRFTISKDNSKNTLYLQMNSLRAEDTAVYYCAKHRGAWGQGTLVTVSAAGGGGSGGGGSGGGGSDIVMTQSPSTLAVSLGEKATINCKSSKSLLNSGNQKNYLIWYQQKPGQPPKLLIYGASTRESGVPDRFSGSVSGTDFTLTISSLQAEDLAVYYCQNDHTYPLTFGQGTKVEIKRTV
notes: From the Hu2LPMab-16 scFv library; also called クローン1; 第一世代交差性抗体; not shown: C-terminal FLAG tag and His tag

Kd [1]: 6.5 nM
Kd [2]: 500 nM
B2: clone 2 (scFv)
scFv: B1 scFv with S14P, T138N, K155Q, I168N, G184R, T231I
notes: From the Hu2LPMab-16 scFv library; also called クローン2; not shown: C-terminal FLAG tag and His tag
